Biological target: the molecule itself
Test: cryo-EM structure; purified f1pIV (~0.7 mg/ml) in 1% CHAPS, 25 mM Na HEPES pH 8.0, 500 mM NaCl, 0.5 mM EDTA, on graphene oxide-coated lacey carbon grids; 2D class averages and a 3D reconstruction with C15 symmetry, 2.7 Å

B1: f1 pIV secretin (His-tagged f1pIV with the stabilizing S318I mutation) (natural protein, bacteriophage f1, UniProt P03666 22-426, looked up)
chain: QVIEMNNSSLRDFVTWYSKQTGESVIVSPDVKGTVTVYSSDVKPENLRDFFISVLRANNFDMVGSIPSIIQKYNPNNQDYIDELPSSDNQEYDDNSAPSGGFFVPQNDNVTQTFKINNVRAKDLIRVVELFVKSNTSKSSNVLSVDGSNLLVVSAPKDILDNLPQFLSTVDLPTDQILIEGLIFEVQQGDALDFSFAAGSQRGTVAGGVNTDRLTSVLSSAGGSFGIFNGDVLGLSVRALKTNSHSKILSVPRILTLSGQKGSISVGQNVPFITGRVTGESANVNNPFQTVERQNVGISMSVFPVAMAGGNIVLDITIKADSLSSSTQASDVITNQRSIATTVNLRDGQTLLLGGLTDYKNTSQDSGVPFLSKIPLIGLLFSSRSDSNEESTLYVLVKATIVRAL
notes: pIV secretin (gene IV protein, virion export protein) of filamentous bacteriophage f1; mature protein of 405 residues (N0 1-88, linker 89-107, N3 108-172, linker 173-174, secretin domain 175-405); S318 is residue 339 of the precursor (318 + 21 signal residues); also called f1pIV secretin channel; copies: 15
B1 was tested, and the “stoichiometry N” value was 15.
